± gives the standard error. Fewer inactive variants are shown than the library holds.
B1: glmS ribozyme (parent)
chain: AUAAAAGCGCCAGAACUACAGAAAUGUAGUUGACGAGGAGGAGGUUUAUCGAAUUUUCGGCGGAUGCCUCCAAA

Key:
Settings in all cases: with glucosamine-6-phosphate
glucosamine-6-phosphate [1] = variants of: B1; assay: self-cleavage kobs at 40 uM GlcN6P; higher = faster cleavage; RNA array
Procedure, shortened: (§1)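 The measurements used barcoded ribozyme variants on sequenced MiSeq chips, transcribed in situ by E. coli RNA polymerase and tracked at 37 °C with a hybridised Cy3 probe. Glucosamine-6-phosphate, 40 μM to 10 mM in HEPES/KCl/Mg(OAc)2 buffer, was flowed in while tiles were imaged over ~14 h. Baseline-normalised signals, also normalised to non-cleaving reference variants, gave per-tile medians that were fit to one- or two-exponential decays for kobs. kcat and KM resulted from weighted Michaelis–Menten fits across concentrations.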

glucosamine-6-phosphate [2] = variants of: B1; assay: self-cleavage kobs at 160 uM GlcN6P; higher = faster cleavage; RNA array
Procedure, shortened: as §1

glucosamine-6-phosphate [3] = variants of: B1; assay: self-cleavage kobs at 640 uM GlcN6P; higher = faster cleavage; RNA array
Procedure, shortened: as §1

glucosamine-6-phosphate [4] = variants of: B1; assay: self-cleavage kobs at 2500 uM GlcN6P; higher = faster cleavage; RNA array
Procedure, shortened: as §1

glucosamine-6-phosphate [5] = variants of: B1; assay: self-cleavage kobs at 10000 uM GlcN6P; higher = faster cleavage; RNA array
Procedure, shortened: as §1

With C11G G37U A53G the “self-cleavage kobs at 40 uM GlcN6P” value (glucosamine-6-phosphate [1]) was < 1e-05 s⁻¹.

For G29U U47A U57G, the “self-cleavage kobs at 40 uM GlcN6P” value (glucosamine-6-phosphate [1]) was < 1e-05 s⁻¹.

In the case of G35A C70U, the “self-cleavage kobs at 40 uM GlcN6P” value (glucosamine-6-phosphate [1]) is reported as < 1e-05 s⁻¹, the “self-cleavage kobs at 160 uM GlcN6P” value (glucosamine-6-phosphate [2]) is reported as < 1e-05 s⁻¹ and the “self-cleavage kobs at 640 uM GlcN6P” value (glucosamine-6-phosphate [3]) is reported as < 1e-05 s⁻¹. For the same variant, the “self-cleavage kobs at 2500 uM GlcN6P” value (glucosamine-6-phosphate [4]) was < 1e-05 s⁻¹ and the “self-cleavage kobs at 10000 uM GlcN6P” value (glucosamine-6-phosphate [5]) was < 1e-05 s⁻¹.

For A12C G51U, the “self-cleavage kobs at 40 uM GlcN6P” value (glucosamine-6-phosphate [1]) was < 1e-05 s⁻¹ and the “self-cleavage kobs at 640 uM GlcN6P” value (glucosamine-6-phosphate [3]) was < 1e-05 s⁻¹.

U49C C58U was tested, and the “self-cleavage kobs at 40 uM GlcN6P” value (glucosamine-6-phosphate [1]) was < 1e-05 s⁻¹, the “self-cleavage kobs at 160 uM GlcN6P” value (glucosamine-6-phosphate [2]) was < 1e-05 s⁻¹ and the “self-cleavage kobs at 640 uM GlcN6P” value (glucosamine-6-phosphate [3]) was < 1e-05 s⁻¹. The “self-cleavage kobs at 2500 uM GlcN6P” value (glucosamine-6-phosphate [4]) was < 1e-05 s⁻¹ and the “self-cleavage kobs at 10000 uM GlcN6P” value (glucosamine-6-phosphate [5]) was < 1e-05 s⁻¹.

G9A G29C was tested, and the “self-cleavage kobs at 40 uM GlcN6P” value (glucosamine-6-phosphate [1]) was < 1e-05 s⁻¹, the “self-cleavage kobs at 160 uM GlcN6P” value (glucosamine-6-phosphate [2]) was < 1e-05 s⁻¹ and the “self-cleavage kobs at 640 uM GlcN6P” value (glucosamine-6-phosphate [3]) was < 1e-05 s⁻¹. The “self-cleavage kobs at 10000 uM GlcN6P” value (glucosamine-6-phosphate [5]) was < 1e-05 s⁻¹.

In the case of C8G C34A A53C G60C, the “self-cleavage kobs at 40 uM GlcN6P” value (glucosamine-6-phosphate [1]) is reported as < 1e-05 s⁻¹, the “self-cleavage kobs at 160 uM GlcN6P” value (glucosamine-6-phosphate [2]) is reported as < 1e-05 s⁻¹ and the “self-cleavage kobs at 640 uM GlcN6P” value (glucosamine-6-phosphate [3]) is reported as < 1e-05 s⁻¹. The “self-cleavage kobs at 2500 uM GlcN6P” value (glucosamine-6-phosphate [4]) was < 1e-05 s⁻¹.

In the case of A15C U30G, the “self-cleavage kobs at 40 uM GlcN6P” value (glucosamine-6-phosphate [1]) is reported as 0.00258 ± 0.00062 s⁻¹, the “self-cleavage kobs at 160 uM GlcN6P” value (glucosamine-6-phosphate [2]) is reported as 0.00591 ± 0.0015 s⁻¹ and the “self-cleavage kobs at 640 uM GlcN6P” value (glucosamine-6-phosphate [3]) is reported as 0.0305 ± 0.0089 s⁻¹. For the same variant, the “self-cleavage kobs at 2500 uM GlcN6P” value (glucosamine-6-phosphate [4]) was 0.0288 ± 0.011 s⁻¹ and the “self-cleavage kobs at 10000 uM GlcN6P” value (glucosamine-6-phosphate [5]) was 0.153 ± 0.058 s⁻¹.

For A36C U49C U65A, the “self-cleavage kobs at 40 uM GlcN6P” value (glucosamine-6-phosphate [1]) was < 1e-05 s⁻¹ and the “self-cleavage kobs at 10000 uM GlcN6P” value (glucosamine-6-phosphate [5]) was < 1e-05 s⁻¹.

For G40C G43C, the “self-cleavage kobs at 40 uM GlcN6P” value (glucosamine-6-phosphate [1]) was < 1e-05 s⁻¹, the “self-cleavage kobs at 160 uM GlcN6P” value (glucosamine-6-phosphate [2]) was < 1e-05 s⁻¹ and the “self-cleavage kobs at 2500 uM GlcN6P” value (glucosamine-6-phosphate [4]) was < 1e-05 s⁻¹. The “self-cleavage kobs at 10000 uM GlcN6P” value (glucosamine-6-phosphate [5]) was < 1e-05 s⁻¹.

For G40C G43A, the “self-cleavage kobs at 40 uM GlcN6P” value (glucosamine-6-phosphate [1]) was < 1e-05 s⁻¹ and the “self-cleavage kobs at 10000 uM GlcN6P” value (glucosamine-6-phosphate [5]) was < 1e-05 s⁻¹.

With G41U A64U the “self-cleavage kobs at 40 uM GlcN6P” value (glucosamine-6-phosphate [1]) was < 1e-05 s⁻¹ and the “self-cleavage kobs at 640 uM GlcN6P” value (glucosamine-6-phosphate [3]) was < 1e-05 s⁻¹.

In the case of A12U C50G, the “self-cleavage kobs at 40 uM GlcN6P” value (glucosamine-6-phosphate [1]) is reported as 4.38e-05 ± 1.4e-05 s⁻¹, the “self-cleavage kobs at 160 uM GlcN6P” value (glucosamine-6-phosphate [2]) is reported as 0.000613 ± 0.00026 s⁻¹ and the “self-cleavage kobs at 2500 uM GlcN6P” value (glucosamine-6-phosphate [4]) is reported as 6.46e-05 ± 2.2e-05 s⁻¹. The “self-cleavage kobs at 10000 uM GlcN6P” value (glucosamine-6-phosphate [5]) was 0.000147 ± 4.2e-05 s⁻¹.

C10U G29C G37A A53C was tested, and the “self-cleavage kobs at 40 uM GlcN6P” value (glucosamine-6-phosphate [1]) was < 1e-05 s⁻¹.

For C16G G40A A64C, the “self-cleavage kobs at 40 uM GlcN6P” value (glucosamine-6-phosphate [1]) was < 1e-05 s⁻¹ and the “self-cleavage kobs at 10000 uM GlcN6P” value (glucosamine-6-phosphate [5]) was < 1e-05 s⁻¹.

In the case of G13C A15U C16G A39C, the “self-cleavage kobs at 40 uM GlcN6P” value (glucosamine-6-phosphate [1]) is reported as < 1e-05 s⁻¹ and the “self-cleavage kobs at 10000 uM GlcN6P” value (glucosamine-6-phosphate [5]) is reported as < 1e-05 s⁻¹.

G13U G43C was tested, and the “self-cleavage kobs at 40 uM GlcN6P” value (glucosamine-6-phosphate [1]) was < 1e-05 s⁻¹, the “self-cleavage kobs at 160 uM GlcN6P” value (glucosamine-6-phosphate [2]) was < 1e-05 s⁻¹ and the “self-cleavage kobs at 640 uM GlcN6P” value (glucosamine-6-phosphate [3]) was < 1e-05 s⁻¹. For the same variant, the “self-cleavage kobs at 2500 uM GlcN6P” value (glucosamine-6-phosphate [4]) was < 1e-05 s⁻¹ and the “self-cleavage kobs at 10000 uM GlcN6P” value (glucosamine-6-phosphate [5]) was < 1e-05 s⁻¹.

C16U C70U was tested, and the “self-cleavage kobs at 40 uM GlcN6P” value (glucosamine-6-phosphate [1]) was 0.00111 ± 0.00017 s⁻¹, the “self-cleavage kobs at 160 uM GlcN6P” value (glucosamine-6-phosphate [2]) was 0.000974 ± 0.0002 s⁻¹ and the “self-cleavage kobs at 640 uM GlcN6P” value (glucosamine-6-phosphate [3]) was 0.00284 ± 0.0011 s⁻¹. For the same variant, the “self-cleavage kobs at 2500 uM GlcN6P” value (glucosamine-6-phosphate [4]) was 0.00209 ± 0.0004 s⁻¹ and the “self-cleavage kobs at 10000 uM GlcN6P” value (glucosamine-6-phosphate [5]) was 0.00694 ± 0.0028 s⁻¹.

For U54C C71U, the “self-cleavage kobs at 40 uM GlcN6P” value (glucosamine-6-phosphate [1]) was 0.000802 ± 8.6e-05 s⁻¹, the “self-cleavage kobs at 160 uM GlcN6P” value (glucosamine-6-phosphate [2]) was 0.00142 ± 0.00023 s⁻¹ and the “self-cleavage kobs at 640 uM GlcN6P” value (glucosamine-6-phosphate [3]) was 0.00401 ± 0.00061 s⁻¹. The “self-cleavage kobs at 2500 uM GlcN6P” value (glucosamine-6-phosphate [4]) was 0.0101 ± 0.0027 s⁻¹ and the “self-cleavage kobs at 10000 uM GlcN6P” value (glucosamine-6-phosphate [5]) was 0.036 ± 0.0094 s⁻¹.

In the case of A39G C50U C58U, the “self-cleavage kobs at 40 uM GlcN6P” value (glucosamine-6-phosphate [1]) is reported as < 1e-05 s⁻¹.

For A33U C34U G60C C68U, the “self-cleavage kobs at 40 uM GlcN6P” value (glucosamine-6-phosphate [1]) was < 1e-05 s⁻¹ and the “self-cleavage kobs at 2500 uM GlcN6P” value (glucosamine-6-phosphate [4]) was < 1e-05 s⁻¹.
